Laboratory results taken from article doi:10.1101/2021.11.17.468837.

Target: cyAbrB1 (Sll0359), N-terminally 6*His-tagged recombinant protein (Synechocystis sp. PCC 6803)
Experiment: native gel or EMSA

Substance: cyAbrB1 (Sll0359), N-terminally 6*His-tagged recombinant protein (natural protein)
- stoichiometry N: 2
